Data from publication PMC9406194.

Assays:
hemoglobin = assay: 2DPC hydrogel aptasensor (Debye ring); conditions: DNA-H1-960, 500 uM protein; same limit as blank; 5'-NH2-(CH2)6 and 3'-(CH2)6-NH2; amide-linked to hydrogel carboxyl groups; 10 mM phosphate-buffered saline, pH 7.40 (one test at pH 5.00), 1 h immersion; temperature of the binding assay not stated
trypsin = assay: 2DPC hydrogel aptasensor (Debye ring); conditions: DNA-H1-960, 500 uM protein; same limit as blank; 5'-NH2-(CH2)6 and 3'-(CH2)6-NH2; amide-linked to hydrogel carboxyl groups; 10 mM phosphate-buffered saline, pH 7.40 (one test at pH 5.00), 1 h immersion; temperature of the binding assay not stated

With “ATCTACGAATTCATCAGGGCTAAAGAGTGCAGAGTTACTTAG [lysozyme-binding aptamer]” the binding signal (nm particle spacing decrease) (hemoglobin) was < 12.7 and the binding signal (nm particle spacing decrease) (trypsin) was < 12.7.
